Assay [1] concerns the target T1, 4H1257-bA.
T1 chain: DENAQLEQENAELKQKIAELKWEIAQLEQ
Briefly: two-hybrid library CCNG1.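 Further: natural log of median RNA to DNA barcode read ratio; higher means stronger binding.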

Assay [2] deals with T2, 4H1446-bA.
T2 chain: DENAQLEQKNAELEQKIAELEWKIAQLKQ
Briefly: two-hybrid library CCNG1.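 Further: natural log of median RNA to DNA barcode read ratio; higher means stronger binding.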

Assay [3] has as its target T3, 4H1828-bA.
T3 chain: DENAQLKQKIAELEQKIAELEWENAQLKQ
The assay can be described thus: two-hybrid library CCNG1.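 Further: natural log of median RNA to DNA barcode read ratio; higher means stronger binding.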

Assay [4] has as its target T4, 4H1845-bA.
T4 chain: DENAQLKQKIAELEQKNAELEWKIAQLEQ
Briefly: two-hybrid library CCNG1.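 Further: natural log of median RNA to DNA barcode read ratio; higher means stronger binding.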

Assay [5] concerns the target T5, 4H2442-bA.
T5 chain: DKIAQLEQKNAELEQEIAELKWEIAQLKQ
The assay can be described thus: two-hybrid library CCNG1.

Assay [6] concerns the target T6, 4H2576-bA.
T6 chain: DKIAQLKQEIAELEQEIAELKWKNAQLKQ
The assay can be described thus: two-hybrid library CCNG1.

Assay [7] has as its target T7, 4H2618-bA.
T7 chain: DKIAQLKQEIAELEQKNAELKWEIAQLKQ
The assay can be described thus: two-hybrid library CCNG1.

In assay [8] the target is T8, 4H2667-bA.
T8 chain: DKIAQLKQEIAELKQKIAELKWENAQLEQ
Briefly: two-hybrid library CCNG1.

Assay [9] deals with T9, 4H2729-bA.
T9 chain: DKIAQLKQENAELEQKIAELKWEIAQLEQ
Briefly: two-hybrid library CCNG1.

The target in assay [10] is T10, 4H3112-bA.
T10 chain: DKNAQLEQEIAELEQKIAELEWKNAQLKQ
The assay can be described thus: two-hybrid library CCNG1.

The target in assay [11] is T11, 4H3185-bA.
T11 chain: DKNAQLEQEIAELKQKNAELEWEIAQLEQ
The assay can be described thus: two-hybrid library CCNG1.

In assay [12] the target is T12, 4H331-bA.
T12 chain: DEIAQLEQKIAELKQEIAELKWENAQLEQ
The assay can be described thus: two-hybrid library CCNG1.

Assay [13] addresses T13, 4H3354-bA.
T13 chain: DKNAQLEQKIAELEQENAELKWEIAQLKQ
The assay can be described thus: two-hybrid library CCNG1.

Assay [14] deals with T14, 4H338-bA.
T14 chain: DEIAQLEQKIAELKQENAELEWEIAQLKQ
Briefly: two-hybrid library CCNG1.

In assay [15] the target is T15, 4H3427-bA.
T15 chain: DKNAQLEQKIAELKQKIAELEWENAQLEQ
The assay can be described thus: two-hybrid library CCNG1.

Assay [16] deals with T16, 4H3782-bA.
T16 chain: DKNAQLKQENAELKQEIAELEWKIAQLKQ
Briefly: two-hybrid library CCNG1.

In assay [17] the target is T17, 4H3855-bA.
T17 chain: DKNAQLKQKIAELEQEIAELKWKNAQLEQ
The assay can be described thus: two-hybrid library CCNG1.

Assay [18] concerns the target T18, 4H4001-bA.
T18 chain: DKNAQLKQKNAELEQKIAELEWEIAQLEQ
The assay can be described thus: two-hybrid library CCNG1.

Assay [19] concerns the target T19, 4H454-bA.
T19 chain: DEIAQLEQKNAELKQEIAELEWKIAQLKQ
The assay can be described thus: two-hybrid library CCNG1.

In assay [20] the target is T20, 4H568-bA.
T20 chain: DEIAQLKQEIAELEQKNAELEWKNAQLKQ
The assay can be described thus: two-hybrid library CCNG1.

Assay [21] has as its target T21, 4H607-bA.
T21 chain: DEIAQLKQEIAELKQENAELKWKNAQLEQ
Briefly: two-hybrid library CCNG1.

Assay [22] deals with T22, 4H687-bA.
T22 chain: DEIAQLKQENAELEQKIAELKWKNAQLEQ
The assay can be described thus: two-hybrid library CCNG1.

In assay [23] the target is T23, 4H717-bA.
T23 chain: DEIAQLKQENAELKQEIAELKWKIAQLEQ
Briefly: two-hybrid library CCNG1.

Assay [24] addresses T24, 4H72-bA.
T24 chain: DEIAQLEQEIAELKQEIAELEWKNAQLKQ
The assay can be described thus: two-hybrid library CCNG1.

Assay [25] has as its target T25, 4H754-bA.
T25 chain: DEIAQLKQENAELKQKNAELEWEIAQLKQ
Briefly: two-hybrid library CCNG1.

Assay [26] concerns the target T26, 4H797-bA.
T26 chain: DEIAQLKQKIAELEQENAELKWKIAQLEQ
Briefly: two-hybrid library CCNG1.

The target of assay [27] is T27, 4H883-bA.
T27 chain: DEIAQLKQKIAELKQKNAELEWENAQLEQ
Briefly: two-hybrid library CCNG1.

Assay [28] has as its target T28, 4H908-bA.
T28 chain: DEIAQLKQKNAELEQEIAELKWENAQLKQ
The assay can be described thus: two-hybrid library CCNG1.

For assay [29], the target named is T29, 4H918-bA.
T29 chain: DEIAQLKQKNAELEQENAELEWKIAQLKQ
Briefly: two-hybrid library CCNG1.

The target of assay [30] is T30, 4H953-bA.
T30 chain: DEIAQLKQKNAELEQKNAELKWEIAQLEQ
Briefly: two-hybrid library CCNG1.

The target in assay [31] is T31, 4H953-bN.
T31 chain: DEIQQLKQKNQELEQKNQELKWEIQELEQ
Briefly: two-hybrid library CCNG1.

The target in assay [32] is T32, 4H967-bA.
T32 chain: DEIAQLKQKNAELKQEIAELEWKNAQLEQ
The assay can be described thus: two-hybrid library CCNG1.

The target of assay [33] is T33, O2-bA.
T33 chain: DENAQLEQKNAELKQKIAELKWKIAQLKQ
The assay can be described thus: two-hybrid library CCNG1.

Assay [34] has as its target T34, Core_INII-es_KEEK.
T34 chain: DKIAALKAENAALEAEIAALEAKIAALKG
The assay can be described thus: two-hybrid library CCmax. Particulars: mean of both orientations.

As for DENAQLEQENAELKQKIAELKWEIAQLEQ [4H1257-bA], the interaction score in [1] was -0.0608; in assay [2], -0.55; in assay [3], -0.782; in assay [4], -0.799; in assay [5] it was -0.983; in assay [6], 0.908. Further, the interaction score in [7] was -0.882; in [8], -0.847; in [9], -0.154; in assay [10], -0.693; in [11], -1.37; in assay [12] it was -0.712. For the same molecule, the interaction score is -0.884 in [13]; -1.24 in [14]; -0.869 in assay [15]; 2.01 in assay [16]; -0.705 in [17]; -0.102 in assay [18]. Also, the interaction score in assay [19] is 1.77; in assay [20], -1.75; in assay [21], -1.24; in [22], -0.935; in assay [23], -0.0683; in assay [24], -1.15. For the same molecule, the interaction score in assay [25] was -1.15; in [26], -0.933; in assay [27], -1.18; in assay [28], -1.38; in [29] it was -0.431; in [30], -1.53. The interaction score was -2.6 in [31], -1.12 in assay [32] and -1.33 in assay [33].
Consider DEIAALEAKNAALKAKIAALKAEIAALEG [Core_INII-es_EKKE], for which, in assay [34], the interaction score turned out to be 2.32.
